Reference: patent US20230391852A1 (US Dept. of Health and Human Services, published 2023)
Where a chain is given by its changes, count along the chain named.

B1: 7C4 VHH-hFc (Fc fusion)
chain: EVQLVESGGGLVQPGGSLRLSCTASGFTFSSYDMSWVRQAPGKGLEWVSGINSGGNKIYYADSVKGRFTISRDNAKNTLYLQMSSLKSEDTALYYCAIGRLYSVKGQGTQVTVSS
notes: also called NCI-CoV-7C4 VHH-hFc fusion protein
B2: 7A5 VHH-hFc (Fc fusion)
chain: B1 chain with E1A, T23A, D33Y, G50T, G54R, N56S, K57S, I58T
notes: also called NCI-CoV-7A5 VHH-hFc fusion protein
B3: 3E8 VHH-hFc (Fc fusion)
chain: QVQLVESGGGLVQAGGSLRLSCATSGFTFSGGYMAWVRQVPGKGLEWVANSIYDGSTYYSDAVKGRFTVSQDNAENTVYLEMNSLEPEDTAMYYCAAGWNGGPWSRTNAYIYWGQGTQVTVSS
notes: also called NCI-CoV-3E8 VHH-hFc fusion protein
B4: 8A4 VHH-hFc (Fc fusion)
chain: EVQLVESGGGLVQPGESLRLSCEASGFTFSSVYMSWVRQAPGKGLEWISTIHPAGGSTYYADSMKDRFTISRDNAKNTLYLQMNSLKSEDTALYYCIIEALSGYRGPGTQVTVSS
notes: also called 8A4-hFc; NCI-CoV-8A4 VHH-hFc fusion protein
B5: 2F7 VHH-hFc (Fc fusion)
chain: QVKLEESGGGSVQSGGSLRLSCTVSRDTNTNINRCMGWFRQAPGKGLETVATINRDGTNTYYTDAVKGRFTISQDNVKNTVYLQMNNLTPEDTGTYICNAMGRGSGSRCDNWDPNYWGQGTQVTVSS
notes: also called 2F7-hFc; NCI-CoV-2F7 VHH-hFc fusion protein
B6: 1A7 VHH-hFc (Fc fusion)
chain: QVQLVESGGGLVQPGGSLRLSCVASGFTFSSVDMSWVRQDPRKGLEWVSGINSGGGSTSYADSVKGQFTISRDNAKNTLYLEMNNLKPEDTAVYYCATGLAASGVWGQGTQVTVSS
notes: also called NCI-CoV-1A7 VHH-hFc fusion protein
B7: 2C7 VHH-hFc (Fc fusion)
chain: EVQLVESGGGSVQTGGSLRLSCVVSGYDYSNYCVAWFRQAEGKNREGLAGINTHGAYTNYNTPAKGRFTISQDLTKNTFTLQMNSLTPEDTAIYYCAAYPEYCPRFSSSSWNNSAVWGQGTQVTVSS
notes: also called NCI-CoV-2C7 VHH-hFc fusion protein
B8: NCI-CoV-8E1 (VHH)
VHH: EVQLVESGGGSVQAGGSLRLSCAASGFTFSSYYMSWVRQAPGKGLEWVSGIYSDGSTYYGDSVKGRFTISRDNAKNTLYLQMNSLKSEDTALYYCAIGTGTTRQGQGTQVTVSS
B9: NCI-CoV-8G12 (VHH)
VHH: AVQLVDSGGGSVQAGGSLRLSCAASGYTSNMNHMGWFRQAPGKGLEWVSGIYSDGSTYYGDSVKGRFTISRDNAKNMLYLQMNNLKPEDTAVYYCSGDGGGIGYNYWGQGTQVTVSS
B10: NCI-CoV-7A3 (VHH)
VHH: QVQLVESGGGSVQPGGSLRLSCVVSGYTSSSRYMGWFRQVPGKGLEWVSGIKRDGTNTYYADSVKGRFTISQDNAKNTVYLQMNSLKPEDTAMYYCAAGSWYNQWGYSMDYWGKGTQVTVSS
B11: NCI-CoV-1A10 (VHH)
VHH: AVQLVDSGGGSVQAGGSLRLSCAASGFTGSNYCLGWFRQAPGKEREGVAVIERDTGGTTYPNSLEGRFTIAQDNAKNMVYLHMRNLQPEDTGTYTCAAARNGDSFGGFTFWGQGTQVTVSS
B12: NCI-CoV-1G11 (VHH)
VHH: QVQLVESGGGSVQAGGSLRLSCVASGDTNTRQYMGWFRQAPGKEREGVAVVHSDSGGTYYADSVKERFIIAQDNAKNTVYLTMNSLKVEDTAIYYCAAKTLEKPHFSVFSAASYDYWGQGTQVTVSS
B13: NCI-CoV-1H6 (VHH)
VHH: AVQLVDSGGGSVQAGGSLNLSCVASGTTLRNGCMAWFRQVPGKEREVVAIIIRATSYTDYADSVKGRFTISQDNAKNTVYLQMKSLTPEDTATYYCAATLYRVNCAKREFDKWGQGTQVTVSS
B14: NCI-CoV-7C4 (VHH)
VHH: B1 chain
B15: NCI-CoV-8B6 (VHH)
VHH: AVQLVDSGGGSVQAGGSLRLSCAASGITYSTNCMGWFRQAPGKGLEWVSGINSDGRNTYYADSVKGRFTISQDNAKNTVYLQMNSLKPEDTAMYYCAAGSWYNQWGYSMDYWGQGTQVTVSS
B16: NCI-CoV-1B5 (VHH)
VHH: DVQLVESGGGSVQAGGSLRLSCTGSRYTYSTYCMGWFRQAPGKEEEAVAIINSGGGEPYYGDSVKGRFTISQDRAKNTVYLQMDGLQPDDTAIYYCVAADSHNSRCYLGRSYVNYWGQGTQVTVSS
B17: NCI-CoV-7E5 (VHH)
VHH: AVQLVESGGGSVQAGGSLRLSCAASGYTYSSNYMGWFRQAPGKELEWVSGIYSDGRTYYGDSVKGRFTISRDNAKNTVYLQMNSLKPEDTAMYYCAAGSWYNQWGYSMDYWGKGTQVTVSS
B18: NCI-CoV-8A2 (VHH)
VHH: AVQLVDSGGGSVQAGGSLRLSCAASGYTYSICTMGWYRQAPGEGLEWVSGINADGSNTHYTDSVKGRFTISRDNAKKTLYLQMNSLKPEDTAIYYCAAHGTYDKYAPCGGFAGTYTYWGQGTQVTVSS
B19: NCI-CoV-2F7 (VHH)
VHH: B5 chain
B20: NCI-CoV-1A7 (VHH)
VHH: B6 chain
B21: NCI-CoV-2D4 (VHH)
VHH: EVQLVESGGGSVQAGGSLRLSCAASAVTSNTNYVGWLRQVPGKEREGVAGIYYDGGVYYDESVKGRFTISRDNAQNTVFLQMNSLKPEDTAMYYCGAGRGYRYQYGSAWYKPGQYHYWGQGTQVTVSS
B22: NCI-CoV-8A1 (VHH)
VHH: QVQLVESGGGSVQAGGSLRLSCAASGFTFSSYFMTWVRQAPGKGLEWVSTINSDGSNTYYADSVKGRFTISRDNAKNTLYLQMNSLKPEDTAMYYCNFRRMIGTSNLNYWGQGTQVTVSS
B23: NCI-CoV-1D7 (VHH)
VHH: QVKLEESGGGLVQPGGSLKLSCTASGFTFSSYNMSWVRQAPGKGLKWVSMIRSDGSNTYYLDSVKGRFTISRDNAKNTVYLQMNSLEPGDTAVYYCVAGRHATYWGQGTQVTVSS
B24: NCI-CoV-2F5 (VHH)
VHH: B23 VHH with K3Q, E5V
B25: NCI-CoV-1H8 (VHH)
VHH: QVQLVESGGGLVQPGGSLRLSCAASGFTFSSYDMTWVRQAPGKGLEWVAAIYTADGSTYLDDSVKGRFTISQDNAKKTLYLQMTSLKVEDTAKYTCATGVGGSFSNWGRGTQVTVSS
B26: NCI-CoV-2A10 (VHH)
VHH: QVQLVESGGGSVQAGGSLRLSCAMSGLRVSNRCMGWFRQAPGKEREGVATICIGDGSTAYADSVKGRFTISQDNAKTTVFLEMNSLKPEDTAMYSCARAVRATAATLDPGNFFYWGQGTQVTVSS
B27: NCI-CoV-2B3 (VHH)
VHH: DVQLVESGGSSVQAGGSLRLSCAASGDSYRGNLMGWFRQAPGKAREGVAVIFTPNHNTYAADSVKGRFTISQDKAKNMVYLQMNSLKPEDTAMYYCATGWEGGLILSARAYRYWGQGTQVTVSS
B28: NCI-CoV-3E5 (VHH)
VHH: EVQLVESGGGLVQPGGSLRLSCAASGFAFSSTRMHWVRQAPGVGLEWVSFIDRTDGGIISYADSVRGRFTISRDNAKNTVYLQMDRLNAEDTAVYYCLKEGPYLDYWDAWGQGTQVTVSS
B29: NCI-CoV-4C6 (VHH)
VHH: QVQLVESGGGSVQAGESLRLSCAVSGISSSTHYMAWFRQLPGKEREGLANIYTPAKVSLYANDVKGRFTISQDVTKNTVYLQMNSLKPEDTAMYYCAARRNAVCNAGSPLDFEFSYWGQGTQVTVSS

The binders below were run against T1, SARS-CoV S1 (SARS-CoV, UniProt P59594 14-667) (assay: ELISA, 1 µg/ml coated antigen, 1 µg/ml VHH-hFc).
T1 construct: domain: S1; also called SARS-CoV S1 protein

Q: Does B1 bind?
A: binds

Q: Does B2 bind?
A: binds

Q: Does B3 bind?
A: binds

Q: Does B4 bind?
A: binds

Q: Does B5 bind?
A: no binding (tested: 1 µg/ml)

Each binder was assayed against T2, BSA (UniProt P02769 25-607) (assay: ELISA, 1 µg/ml coated BSA, 1 µg/ml VHH-hFc).
T2 construct: also called control protein
T2 sequence (P02769 25-607 limits assumed): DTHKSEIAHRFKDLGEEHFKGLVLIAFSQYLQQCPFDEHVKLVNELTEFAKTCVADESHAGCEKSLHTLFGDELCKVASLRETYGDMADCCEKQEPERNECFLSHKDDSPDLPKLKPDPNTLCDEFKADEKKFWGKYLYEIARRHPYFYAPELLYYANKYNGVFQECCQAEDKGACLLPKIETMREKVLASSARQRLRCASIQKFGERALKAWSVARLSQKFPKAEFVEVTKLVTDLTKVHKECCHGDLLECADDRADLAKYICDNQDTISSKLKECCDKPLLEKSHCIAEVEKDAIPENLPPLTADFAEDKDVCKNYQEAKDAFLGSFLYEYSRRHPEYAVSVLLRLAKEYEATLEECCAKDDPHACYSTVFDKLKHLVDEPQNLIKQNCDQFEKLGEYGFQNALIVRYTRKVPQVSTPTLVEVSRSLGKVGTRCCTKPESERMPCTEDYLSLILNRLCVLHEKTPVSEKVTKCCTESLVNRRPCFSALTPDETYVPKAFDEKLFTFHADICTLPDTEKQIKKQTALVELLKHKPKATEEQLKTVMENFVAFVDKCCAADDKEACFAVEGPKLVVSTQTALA

Q: Does B6 bind?
A: no binding (tested: 1 µg/ml)

Q: Does B7 bind?
A: no binding (tested: 1 µg/ml)

Q: Does B1 bind?
A: no binding (tested: 1 µg/ml)

Q: Does B2 bind?
A: binds

Q: Does B3 bind?
A: no binding (tested: 1 µg/ml)

Q: Does B4 bind?
A: no binding (tested: 1 µg/ml)

Q: Does B5 bind?
A: no binding (tested: 1 µg/ml)

These binders were tested against T3, SARS-CoV-2 S1 (assay: monoclonal phage ELISA, drawn table of OD450 values).
T3 construct: also called S1 subunit of the SARS-CoV-2 spike protein

Q: With B8 as the binder, how does the OD450 read?
A: 0.51

Q: Which OD450 does the source give for B9 here?
A: 0.62

Q: Which OD450 does the source give for B10 here?
A: 0.54

Q: With B11 as the binder, how does the OD450 read?
A: 0.84

Q: With B12 as the binder, how does the OD450 read?
A: 0.68

Q: B13 was tested. Which OD450 did it give?
A: 0.82

Q: B14 was tested. Which OD450 did it give?
A: 0.52

Q: B15 was tested. Which OD450 did it give?
A: 0.88

These binders were tested against T4, SARS-CoV-2 S trimer (SARS-CoV-2, UniProt P0DTC2 16-1213) in the same assay as above.
T4 construct: also called SARS-CoV-2 S protein; S homotrimer protein

Q: B16 was tested. Which OD450 did it give?
A: 0.67

Q: How did the OD450 turn out when B17 was run?
A: 0.6

Q: How did the OD450 turn out when B18 was run?
A: 0.61

Q: B8 was tested. Which OD450 did it give?
A: 0.58

Q: With B9 as the binder, how does the OD450 read?
A: 0.6

Q: Which OD450 does the source give for B10 here?
A: 0.59

Q: For B11, which OD450 is on record?
A: 0.63

Q: Which OD450 does the source give for B13 here?
A: 0.72

Q: B14 was tested. Which OD450 did it give?
A: 0.76

Q: With B19 as the binder, how does the OD450 read?
A: 0.8

Q: Which OD450 does the source give for B20 here?
A: 0.67

Q: B21 was tested. Which OD450 did it give?
A: 0.58

The binders below were run against SARS-CoV-2 spike on pseudovirus (SARS-CoV-2, UniProt P0DTC2 14-1273) (assay: cell-based or functional assay).

Q: How did the “IC50, SARS-CoV-2 spike pseudovirus neutralization, repeated assay (FIGS. 9A-9F)” value (shortened to “IC50 … (FIGS. 9A-9F)”) turn out when B6 was run?
A: 0.428 µM

Q: B7 was tested. Which “IC50 … (FIGS. 9A-9F)” value did it give?
A: 5.79 µM

Q: With B1 as the binder, how does the “IC50 … (FIGS. 9A-9F)” value read?
A: 4.29 µM

Q: How did the “IC50 … (FIGS. 9A-9F)” value turn out when B2 was run?
A: 3.43 µM

Q: Which “IC50 … (FIGS. 9A-9F)” value does the source give for B3 here?
A: 1.17 µM

These binders were tested against SARS-CoV-2 RBD (SARS-CoV-2, UniProt P0DTC2 319-541) (assay: monoclonal VHH phage clone binding screen (FIG. 3A)).

Q: Does B15 bind?
A: binds

Q: Does B22 bind?
A: binds

Q: Does B23 bind?
A: binds

Q: Does B24 bind?
A: binds

Q: Does B25 bind?
A: binds

Q: Does B26 bind?
A: binds

Q: Does B27 bind?
A: binds

Q: Does B28 bind?
A: binds

Q: Does B29 bind?
A: binds
